Experimental data taken from article PMC8577781.

target: human recombinant CXCL10 (human) (UniProt P02778)
Sequence of UniProt P02778 (P02778 22-98): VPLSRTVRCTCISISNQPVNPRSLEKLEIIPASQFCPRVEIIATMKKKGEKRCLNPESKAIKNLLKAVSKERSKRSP

Substance	CXCL10 cleavage rate: GP63 in conditioned medium incubated with 1000 pg/mL CXCL10 for 2 hours, remaining CXCL10 measured by ELISA, rate by linear regression
L. (L.) major GP63 (glycoprotein-63), wild-type allele gp63^PYSDGS (from UniProt P08148 40-577) (enzyme)	6.07 pg/mL/min
L. (L.) major GP63 triple mutant gp63^GYSNGA (from UniProt P08148 40-577) (enzyme)	0.14 pg/mL/min
L. (L.) major GP63 D463N mutant gp63^PYSNGS (from UniProt P08148 40-577) (enzyme)	1.16 pg/mL/min
